Data from patent US10456465B2, “Compositions, kits, and methods for the diagnosis prognosis, monitoring, treatment and modulation of post-transplant lymphoproliferative disorders and hypoxia associated angiogenesis disorders using galectin-1” (Dana-Farber Cancer Institute, Inc., priority 2009, dated 2019).

Tests used:
HUVEC = HUVEC invasion (BioCoat Angiogenesis system); assay type: cell-based, human; conditions: HUVEC treated with Gal1
Procedure: (§1) HUVEC transfected or not with specific siRNA or pre-incubated with signaling pathway inhibitors were exposed to VEGF or Gal1 with or without lactose, sucrose, 8F4F8G7 mAb or control isotype (IgG1κ) or specific antibodies for VEGFR1 (AP-MAB0702; Abcam), VEGFR2 (AF357; R&D), VEGFR3 (AB89501; Abcam) or VEGF (MAB293; R&D). Cells were processed for proliferation, migration, invasion and tube formation assays. Tumor-associated blood vessels were identified by flow cytometry using Alexa Fluor 647-conjugated anti-CD34 antibody (RAM34; eBioscience).
Invasion assays were performed using the BioCoat Angiogenesis system (BD Biosciences) following manufacturer's recommendations. For assessment of in vivo angiogenesis, growth factor-reduced Matrigel (BD Biosciences) was mixed with Gal1 (0.1 or 3 μM) with or without lactose (30 mM). In another set of experiments, serum-free CM from KS cells infected or not with a retroviral vector expressing Gal1 shRNA and cultured under hypoxic or normoxic conditions, were added to unpolymerized Matrigel and injected subcutaneously into the flanks of either wild-type or Lgals1^−/− (B6) mice or nude mice using a cold syringe. Matrigel embedded with buffer alone was used as negative control and a cocktail containing VEGF (50 ng/ml), heparin (50 U/ml) and TNF (2 ng/ml) was used as positive control. […]

VEGFR2 = assay: Immunoblot of VEGFR2 phosphorylation in HUVEC; assay type: cell-based, human
Procedure: Array (Cell Signaling) following manufacturer's directions. For co-immunoprecipitation, 500 μg cell lysates were incubated with 2 μg of anti-VEGFR2 (55B11; Cell Signaling) or anti-NRP-1 (C-19; Santa Cruz Biotechnol) antibodies. The immunocomplexes were captured with protein G PLUS-Agarose (Santa Cruz Biotechnol) and processed for immunoblot analysis as described in Ilarregui et al. (2009) Nat Immunol 10, 981-991. Equal amounts of protein were resolved by SDS-PAGE, blotted onto nitrocellulose membranes (GE Healthcare) and probed with anti-IκB-α (C21), anti-Erk1/2 (C14), anti-phospho-Erk1/2 (E4) or anti-actin (I-19) (all from Santa Cruz Biotechnol) or anti-Akt (9272), anti-phospho-Akt (9271S), anti-VEGFR2 (55B11), anti-phospho-VEGFR2 (19A10) (all from Cell Signaling) or anti-HIF-1α (mgc3; ABR BioReagent) antibodies or a rabbit anti-Gal1 IgG (1.5 μg/ml) obtained as described in Ilarregui et al. (2009) Nat Immunol 10, 981-991.

human galectin-1 (Gal1) = target: T1, human galectin-1 (Gal1) (human, UniProt P09382 2-135); assay: immunoblot of L428 cell lysate
T1 construct: Used as recombinant protein (rGal1); also called hGal1; rGal1

B16 tumors = assay: Syngeneic B16 melanoma model; assay type: in vivo, mouse
Procedure: Wild-type KS cells or shRNA clones (5×10^6 cells) were injected subcutaneously into 6- to 8-week old nude mice. Wild-type B16 cells or shRNA clones (2×10^5 cells) were injected into 6- to 8-week old B6 or B6/Rag^−/− mice and tumor development was monitored as described in Rubinstein et al. (2004) Cancer Cell 5, 241-251. Treatments with 8F4F8G7 mAb or control isotype (2.5, 7.5 or 15 mg/kg; i.p. injections every three days) were initiated when tumors reached 100 mm^3. Mice were sacrificed when tumors reached a volume greater than 2 cm^3. At 2 weeks after tumor challenge, lymph node cells (5×10^5 cells/well) were restimulated for 72 h with 1×10^4 irradiated (4,000 rads) B16 cells and were analyzed for proliferation and cytokine production. For adoptive transfer, splenic T cells (5×10^6) from tumor-bearing mice were labeled with CFSE (Molecular Probes) and injected through the tail vein into tumor-bearing recipient mice treated with 8F4F8G7 or control mAb. In related studies, fluorescent beads (3 μm; BD Biosciences), rather than splenic T cells, were injected into tumor-bearing animals treated with 8F4F8G7 or control antibody. CFSE^+ cells or PerCP-labeled beads were analyzed after 24 h or 15 min respectively by flow cytometry in tumor parenchyma and spleen.
For immunostaining, mice were anesthetized and cardiac-perfused with PBS and 4% paraformaldehyde and tissues were embedded in OCT. To visualize the vasculature, mice were intravenously injected with FITC-conjugated Griffonia simplicifolia Lectin-1 (GLS-1B4, Vector) prior to heart perfusion and fixation. Pericyte maturation was assessed using antibodies specific for αSMA (1A4; Dako), desmin (D33; Dako), PDGFRβ (APB5; Biolegend) and Rgs5 (HPA001821; Prestige Sigma). The fraction of pericyte coverage was calculated as the ratio of αSMA area to the FITC-GLS-1B4 or CD31 stained area using a specific anti-CD31 antibody (Mec13.3; BD Biosciences). For immunoperoxidase staining, paraffin-embedded human tumor sections were incubated with anti-CD31 (JC/70A; Dako) and anti-Gal1 antibodies as described in Juszczynski et al. (2007) Proc Natl Acad Sci USA 104, 13134-13139 using the Vectastain Elite ABC kit (Vector). Studies with patient biopsies were subjected to Institutional Review Boards approval (CEMIC and IBYME). Hypoxia was detected after injection of pimonidazole hydrochloride for 30 min following immunostaining with Hypoxyprobe-1 plus kit (Natural Pharmacia International).

KS tumors = assay: KS xenograft in nude mice; assay type: in vivo
Procedure: as §1
Wild-type KS cells or shRNA clones (5×10^6 cells) were injected subcutaneously into 6- to 8-week old nude mice. Wild-type B16 cells or shRNA clones (2×10^5 cells) were injected into 6- to 8-week old B6 or B6/Rag^−/− mice and tumor development was monitored as described in Rubinstein et al. (2004) Cancer Cell 5, 241-251. Treatments with 8F4F8G7 mAb or control isotype (2.5, 7.5 or 15 mg/kg; i.p. injections every three days) were initiated when tumors reached 100 mm^3. […] At 2 weeks after tumor challenge, lymph node cells (5×10^5 cells/well) were restimulated for 72 h with 1×10^4 irradiated (4,000 rads) B16 cells and were analyzed for proliferation and cytokine production. […] CFSE^+ cells or PerCP-labeled beads were analyzed after 24 h or 15 min respectively by flow cytometry in tumor parenchyma and spleen.

T1 sequence (P09382 2-135 limits assumed): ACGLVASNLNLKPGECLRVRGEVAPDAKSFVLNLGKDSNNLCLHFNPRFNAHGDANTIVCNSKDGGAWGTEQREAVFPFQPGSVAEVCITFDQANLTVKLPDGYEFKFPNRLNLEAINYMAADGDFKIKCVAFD

Molecule	EC invasion (HUVEC)	VEGFR2 phosphorylation in response to Gal1 (VEGFR2)	binding result (human galectin-1 (Gal1))	microvessel density of tumors (B16 tumors; 30 days post-inoculation)	frequency of CD34+ cells (B16 tumors; day 20)	decreased tumor burden (B16 tumors; immunocompetent mice, established B16 tumors, day 20) [%]	anti-tumor effect (B16 tumors; immunodeficient B6/Rag−/− mice)	coverage by pericytes (B16 tumors; vs isotype control)	dilated and tortuous vessels (B16 tumors; vs isotype control)	pericyte phenotype (B16 tumors; vs isotype control)	tumor hypoxia (pimonidazole adducts) (B16 tumors; vs isotype control)	tumor vasculature: vessel diameter and distribution (B16 tumors; vs isotype control, lectin-perfused vessels)	expression of desmin (B16 tumors; vs isotype-treated tumors)	pericyte expression of platelet-derived growth factor receptor (PDGFR)β (B16 tumors; vs isotype-treated tumors)	pericyte expression of regulator of G-protein signaling 5 (Rgs5) (B16 tumors; vs isotype-treated tumors)	pericyte expression of α-smooth muscle actin (αSMA) (B16 tumors; vs isotype-treated tumors)	tumor microvasculature (KS tumors; CD34+ ECs and tumor hemoglobin content, vs isotype control)	tumor growth (KS tumors; established KS tumors, 2.5, 7.5 or 15 mg/kg i.p. every three days)
rGal1: recombinant human galectin-1	elicited	–	–	–	–	–	–	–	–	–	–	–	–	–	–	–	–	–
anti-Gal1 monoclonal antibody 8F4F8G7 (antibody, V domains shown, Murine hybridoma mAb (deposit PTA-10535), lambda light chain; also called 14-19 8F4-F8-G7; clone 8F4.8F.67) VH: EVQLQQSVAEFVRPGASVRLSCTASGFNIKNTYIHWVRQRPEQGLEWIGKIDPANGNTKYVPEFQGKATMTADTSSNTVYLHLSSLTSEDTAIYYCVDGYYGWYFAVWGTGTTVTVSS VL: QAVVTQESALTTSPGETVTLTCRSSTGAVTTSNYANWVQEKPDHLFTGLIGATNNRAPGVPARFSGSLIGDKAVLTITGAQTEDEAIYFCALWYRNHFIFGSGTKVTVL	–	specifically inhibited	binds	only a slight decrease	No significant changes	~86	only a partial anti-tumor effect	greater coverage	fewer	more mature phenotype	markedly alleviated	resembled normal vascular networks	no significant variations	lower expression	lower expression	higher expression	significant reduction	dose-dependent delay
